Assay [1] in a line: 4-MUL cellobiose tolerance/inhibition assay, dose-response IC50 (Example 2). Format: biochemical. Particulars: primary screening, n=1; for Tolerance at 1 mM CB (MUL Data): 1 mM cellobiose; for IC50: 10 μL enzyme, cellobiose range 0.0001-100 mM, read-out: IC50 (MUL Data). An outline of the steps: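 CBH I variant supernatants (5 μg/mL final, or undiluted if lower) on 0.5 mM 4-MUL in 100 mM MES pH 6 with 25 mM gluconolactone, fluorescence ex/em 365/450 nm. Activity measured at 6–8 cellobiose levels up to 100 mM; IC50 from four-parameter fit, bottom constrained to knockout background.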

A short description of assay [2]: 4-MUL assay, specific activity (Example 2). Format: biochemical. Conditions: primary screening; 10 μL enzyme; n=1. The procedure: CBH I activity on was measured using the 4-MUL assay using gluconolactone to inhibit any BG activity. The fluorogenic 4-MUL substrate (SIGMA) was prepared at 100 mM concentration in DMSO. Assays were run in black 96-well-flat-bottomed plates (Costar) and 4-MU fluorescence was read on a BioTek H4 plate reader (ex/em 365/450 nm). Assay plates were filled with buffer (final concentrations of 100 mM MES, pH 6, 25 mM gluconolactone, with or without cellobiose; cellobiose concentrations are listed with appropriate data sets), to which enzyme mixture was added (10-30 μl, 5 μg/mL final) and then assays were initiated by addition of 4-MUL (0.5 mM final concentration in 100 μl total volume). Enzyme mixtures were either CBH I variants from harvested supernatants or standards. Standards included: a negative control, consisting of harvested supernatant from the CBH I knock-out strain; a positive control, consisting of wild-type CBH I from harvested supernatants; and, a commercial CBH I standard (E-CBHI from Megazymes). Activity standards were run by serial dilution of commercial CBH I from 40 to 0.02 μg/mL and 4-MU (SIGMA, prepared at 20 mM in DMSO) (in dilution increments of 2-fold; all dilutions were made using harvested supernatant from the knock-out control). Kinetic rates were monitored over the first 15 mins following 4-MUL addition; initial rates were calculated based on data in the linear range. After 1 hr, a final endpoint read was taken, both before and after reaction quenching (100 μL of 200 mM Sodium Carbonate, pH 10.0). Activity was calculated for kinetic and endpoint reads; background resulting from the CBH I knock-out supernatant remained negligible. 4MU standard curves and HPLC quantification values were used to calculate specific activity.
The specific activity (SA) of the variant library was evaluated in a secondary 4-MUL assay. […] On average, a mutation at position 268 increases the specific activity by 2.5 fold over that of wild type. A mutation at 268 in combination with 411 is around 1.5-1.6 fold higher than wild-type, on average.

B1: 268— Asn (protein, UniProt P62694 18-513, looked up, variant R268N)
Exoglucanase 1: QSACTLQSETHPPLTWQKCSSGGTCTQQTGSVVIDANWRWTHATNSSTNCYDGNTWSSTLCPDNETCAKNCCLDGAAYASTYGVTTSGNSLSIGFVTQSAQKNVGARLYLMASDTTYQEFTLLGNEFSFDVDVSQLPCGLNGALYFVSMDADGGVSKYPTNTAGAKYGTGYCDSQCPRDLKFINGQANVEGWEPSSNNANTGIGGHGSCCSEMDIWEANSISEALTPHPCTTVGQEICEGDGCGGTYSDNNYGGTCDPDGCDWNPYRLGNTSFYGPGSSFTLDTTKKLTVVTQFETSGAINRYYVQNGVTFQQPNAELGSYSGNELNDDYCTAEEAEFGGSSFSDKGGLTQFKKATSGGMVLVMSLWDDYYANMLWLDSTYPTNETSSTPGAVRGSCSTSSGVPAQVESQSPNAKVTFSNIKFGPIGSTGNPSGGNPPGGNRGTTTTRRPATTTGSSPGPTQSHYGQCGGIGYSGPTVCASGTTCQVLNPYYSQCL
Turning to B1, in assay [1], the “Tolerance at 1 mM CB (MUL Data)” value is reported as 41% and the IC50 worked out at 670 µM. Also, in assay [2], the “SA (μmol 4 MU/min/mg) (MUL Data)” value came out at 13.97 μmol 4 MU/min/mg.

B2: 268— Cys (protein, UniProt P62694 18-513, looked up, variant R268C)
Exoglucanase 1: QSACTLQSETHPPLTWQKCSSGGTCTQQTGSVVIDANWRWTHATNSSTNCYDGNTWSSTLCPDNETCAKNCCLDGAAYASTYGVTTSGNSLSIGFVTQSAQKNVGARLYLMASDTTYQEFTLLGNEFSFDVDVSQLPCGLNGALYFVSMDADGGVSKYPTNTAGAKYGTGYCDSQCPRDLKFINGQANVEGWEPSSNNANTGIGGHGSCCSEMDIWEANSISEALTPHPCTTVGQEICEGDGCGGTYSDNCYGGTCDPDGCDWNPYRLGNTSFYGPGSSFTLDTTKKLTVVTQFETSGAINRYYVQNGVTFQQPNAELGSYSGNELNDDYCTAEEAEFGGSSFSDKGGLTQFKKATSGGMVLVMSLWDDYYANMLWLDSTYPTNETSSTPGAVRGSCSTSSGVPAQVESQSPNAKVTFSNIKFGPIGSTGNPSGGNPPGGNRGTTTTRRPATTTGSSPGPTQSHYGQCGGIGYSGPTVCASGTTCQVLNPYYSQCL
Turning to B2, in assay [1], the “Tolerance at 1 mM CB (MUL Data)” value is 35% and the half-maximal inhibitory concentration (IC50) was found to be 520 µM. In addition, the “SA (μmol 4 MU/min/mg) (MUL Data)” value in assay [2] amounted to 0.86 μmol 4 MU/min/mg.

B3: 268_+411A Ala (protein, UniProt P62694 18-513, looked up, variant R268A R411A)
Exoglucanase 1: QSACTLQSETHPPLTWQKCSSGGTCTQQTGSVVIDANWRWTHATNSSTNCYDGNTWSSTLCPDNETCAKNCCLDGAAYASTYGVTTSGNSLSIGFVTQSAQKNVGARLYLMASDTTYQEFTLLGNEFSFDVDVSQLPCGLNGALYFVSMDADGGVSKYPTNTAGAKYGTGYCDSQCPRDLKFINGQANVEGWEPSSNNANTGIGGHGSCCSEMDIWEANSISEALTPHPCTTVGQEICEGDGCGGTYSDNAYGGTCDPDGCDWNPYRLGNTSFYGPGSSFTLDTTKKLTVVTQFETSGAINRYYVQNGVTFQQPNAELGSYSGNELNDDYCTAEEAEFGGSSFSDKGGLTQFKKATSGGMVLVMSLWDDYYANMLWLDSTYPTNETSSTPGAVAGSCSTSSGVPAQVESQSPNAKVTFSNIKFGPIGSTGNPSGGNPPGGNRGTTTTRRPATTTGSSPGPTQSHYGQCGGIGYSGPTVCASGTTCQVLNPYYSQCL
On to B3, for which, in assay [1], the “Tolerance at 1 mM CB (MUL Data)” value worked out at 65% and the IC50 was 1330 µM. In addition, the “SA (μmol 4 MU/min/mg) (MUL Data)” value in assay [2] was determined as 0.52 μmol 4 MU/min/mg.

B4: 268_+411A Val (protein, UniProt P62694 18-513, looked up, variant R268V R411A)
Exoglucanase 1: QSACTLQSETHPPLTWQKCSSGGTCTQQTGSVVIDANWRWTHATNSSTNCYDGNTWSSTLCPDNETCAKNCCLDGAAYASTYGVTTSGNSLSIGFVTQSAQKNVGARLYLMASDTTYQEFTLLGNEFSFDVDVSQLPCGLNGALYFVSMDADGGVSKYPTNTAGAKYGTGYCDSQCPRDLKFINGQANVEGWEPSSNNANTGIGGHGSCCSEMDIWEANSISEALTPHPCTTVGQEICEGDGCGGTYSDNVYGGTCDPDGCDWNPYRLGNTSFYGPGSSFTLDTTKKLTVVTQFETSGAINRYYVQNGVTFQQPNAELGSYSGNELNDDYCTAEEAEFGGSSFSDKGGLTQFKKATSGGMVLVMSLWDDYYANMLWLDSTYPTNETSSTPGAVAGSCSTSSGVPAQVESQSPNAKVTFSNIKFGPIGSTGNPSGGNPPGGNRGTTTTRRPATTTGSSPGPTQSHYGQCGGIGYSGPTVCASGTTCQVLNPYYSQCL
B4: in assay [1], the “Tolerance at 1 mM CB (MUL Data)” value was 93% and the IC50 was found to be 7480 µM. Further, the “SA (μmol 4 MU/min/mg) (MUL Data)” value in assay [2] worked out at 1.33 μmol 4 MU/min/mg.

B5: 268_+411A Trp (protein, UniProt P62694 18-513, looked up, variant R268W R411A)
Exoglucanase 1: QSACTLQSETHPPLTWQKCSSGGTCTQQTGSVVIDANWRWTHATNSSTNCYDGNTWSSTLCPDNETCAKNCCLDGAAYASTYGVTTSGNSLSIGFVTQSAQKNVGARLYLMASDTTYQEFTLLGNEFSFDVDVSQLPCGLNGALYFVSMDADGGVSKYPTNTAGAKYGTGYCDSQCPRDLKFINGQANVEGWEPSSNNANTGIGGHGSCCSEMDIWEANSISEALTPHPCTTVGQEICEGDGCGGTYSDNWYGGTCDPDGCDWNPYRLGNTSFYGPGSSFTLDTTKKLTVVTQFETSGAINRYYVQNGVTFQQPNAELGSYSGNELNDDYCTAEEAEFGGSSFSDKGGLTQFKKATSGGMVLVMSLWDDYYANMLWLDSTYPTNETSSTPGAVAGSCSTSSGVPAQVESQSPNAKVTFSNIKFGPIGSTGNPSGGNPPGGNRGTTTTRRPATTTGSSPGPTQSHYGQCGGIGYSGPTVCASGTTCQVLNPYYSQCL
As for B5, in assay [1], the “Tolerance at 1 mM CB (MUL Data)” value turned out to be 84% and the IC50 worked out at 7010 µM. Besides, the “SA (μmol 4 MU/min/mg) (MUL Data)” value in assay [2] turned out to be 0.81 μmol 4 MU/min/mg.

B6: 268— Thr (protein, UniProt P62694 18-513, looked up, variant R268T)
Exoglucanase 1: QSACTLQSETHPPLTWQKCSSGGTCTQQTGSVVIDANWRWTHATNSSTNCYDGNTWSSTLCPDNETCAKNCCLDGAAYASTYGVTTSGNSLSIGFVTQSAQKNVGARLYLMASDTTYQEFTLLGNEFSFDVDVSQLPCGLNGALYFVSMDADGGVSKYPTNTAGAKYGTGYCDSQCPRDLKFINGQANVEGWEPSSNNANTGIGGHGSCCSEMDIWEANSISEALTPHPCTTVGQEICEGDGCGGTYSDNTYGGTCDPDGCDWNPYRLGNTSFYGPGSSFTLDTTKKLTVVTQFETSGAINRYYVQNGVTFQQPNAELGSYSGNELNDDYCTAEEAEFGGSSFSDKGGLTQFKKATSGGMVLVMSLWDDYYANMLWLDSTYPTNETSSTPGAVRGSCSTSSGVPAQVESQSPNAKVTFSNIKFGPIGSTGNPSGGNPPGGNRGTTTTRRPATTTGSSPGPTQSHYGQCGGIGYSGPTVCASGTTCQVLNPYYSQCL
Regarding B6, in assay [1], the “Tolerance at 1 mM CB (MUL Data)” value turned out to be 42% and the IC50 was found to be 600 µM. For the same molecule, the “SA (μmol 4 MU/min/mg) (MUL Data)” value in assay [2] is on record as 0.97 μmol 4 MU/min/mg.

B7: 268— Ser (protein, UniProt P62694 18-513, looked up, variant R268S)
Exoglucanase 1: QSACTLQSETHPPLTWQKCSSGGTCTQQTGSVVIDANWRWTHATNSSTNCYDGNTWSSTLCPDNETCAKNCCLDGAAYASTYGVTTSGNSLSIGFVTQSAQKNVGARLYLMASDTTYQEFTLLGNEFSFDVDVSQLPCGLNGALYFVSMDADGGVSKYPTNTAGAKYGTGYCDSQCPRDLKFINGQANVEGWEPSSNNANTGIGGHGSCCSEMDIWEANSISEALTPHPCTTVGQEICEGDGCGGTYSDNSYGGTCDPDGCDWNPYRLGNTSFYGPGSSFTLDTTKKLTVVTQFETSGAINRYYVQNGVTFQQPNAELGSYSGNELNDDYCTAEEAEFGGSSFSDKGGLTQFKKATSGGMVLVMSLWDDYYANMLWLDSTYPTNETSSTPGAVRGSCSTSSGVPAQVESQSPNAKVTFSNIKFGPIGSTGNPSGGNPPGGNRGTTTTRRPATTTGSSPGPTQSHYGQCGGIGYSGPTVCASGTTCQVLNPYYSQCL
As for B7, in assay [1], the “Tolerance at 1 mM CB (MUL Data)” value worked out at 45% and the IC50 came out at 740 µM. The “SA (μmol 4 MU/min/mg) (MUL Data)” value in assay [2] worked out at 1.00 μmol 4 MU/min/mg.

B8: 268_+411A Ile (protein, UniProt P62694 18-513, looked up, variant R268I R411A)
Exoglucanase 1: QSACTLQSETHPPLTWQKCSSGGTCTQQTGSVVIDANWRWTHATNSSTNCYDGNTWSSTLCPDNETCAKNCCLDGAAYASTYGVTTSGNSLSIGFVTQSAQKNVGARLYLMASDTTYQEFTLLGNEFSFDVDVSQLPCGLNGALYFVSMDADGGVSKYPTNTAGAKYGTGYCDSQCPRDLKFINGQANVEGWEPSSNNANTGIGGHGSCCSEMDIWEANSISEALTPHPCTTVGQEICEGDGCGGTYSDNIYGGTCDPDGCDWNPYRLGNTSFYGPGSSFTLDTTKKLTVVTQFETSGAINRYYVQNGVTFQQPNAELGSYSGNELNDDYCTAEEAEFGGSSFSDKGGLTQFKKATSGGMVLVMSLWDDYYANMLWLDSTYPTNETSSTPGAVAGSCSTSSGVPAQVESQSPNAKVTFSNIKFGPIGSTGNPSGGNPPGGNRGTTTTRRPATTTGSSPGPTQSHYGQCGGIGYSGPTVCASGTTCQVLNPYYSQCL
Take B8: in assay [1], the “Tolerance at 1 mM CB (MUL Data)” value amounted to 90% and the IC50 is 10400 µM. For the same molecule, the “SA (μmol 4 MU/min/mg) (MUL Data)” value in assay [2] amounted to 0.89 μmol 4 MU/min/mg.

The IC50 is the concentration needed to halve the response being measured.

The values above are taken from patent publication US20140287471A1, “VARIANT CBH I POLYPEPTIDES WITH REDUCED PRODUCT INHIBITION” (BP CORPORATION NORTN AMERICA INC., priority 2011, published 2014).
